Results from patent publication US20200347143A1 (GLENMARK PHARMACEUTICALS S A, published 2020).

T1: human OX40 on cells (human, UniProt P43489 29-277)
T1 sequence (looked up): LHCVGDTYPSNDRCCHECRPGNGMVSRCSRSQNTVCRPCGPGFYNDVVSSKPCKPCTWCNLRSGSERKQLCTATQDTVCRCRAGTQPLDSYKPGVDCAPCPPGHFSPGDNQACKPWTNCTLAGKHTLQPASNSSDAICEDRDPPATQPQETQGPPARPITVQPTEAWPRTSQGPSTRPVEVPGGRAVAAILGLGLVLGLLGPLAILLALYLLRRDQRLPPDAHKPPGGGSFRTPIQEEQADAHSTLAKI


Molecular target: T1, human OX40 on cells
Test: cell-based or functional assay

Binder	% donor responder (>2), SEB assay, IL-2 release [%]	Mean, normalized IL-2 release, SEB assay
2H6 IgG1 LALA (antibody) heavy: not shown light: DIQLTQSPSSLSASVGDRVTITCRASESVDNYGISFMNWFQQKPGKAPKLLIYAASNQKSGVPSRFSGSGSGTDFTLTISSLQPEDFATYFCQQSKEVPLTFGQGTKVEIKRTVAAPSVFIFPPSDEQLKSGTASVVCLLNNFYPREAKVQWKVDNALQSGNSQESVTEQDSKDSTYSLSSTLTLSKADYEKHKVYACEVTHQGLSSPVTKSFNRGEC	25	1.45
Tetra-15 (antibody, human IgG1, kappa, L234A L235A) heavy: not shown light: DIQLTQSPSSLSASVGDRVTITCRASESVDNYGISFMNWFQQKPGKAPKLLIYAASNQKSGVPSRFSGSGSGTDFTLTISSLQPEDFATYFCQQSKEVPLTFGQGTKVEIKRTVAAPSVFIFPPSDEQLKSGTASVVCLLNNFYPREAKVQWKVDNALQSGNSQESVTEQDSKDSTYSLSSTLTLSKADYEKHKVYACEVTHQGLSSPVTKSFNRGEC	0	0.93
Tetra-18 (antibody, human IgG1, kappa, L234A L235A) heavy: not shown light: DIQLTQSPSSLSASVGDRVTITCRASESVDNYGISFMNWFQQKPGKAPKLLIYAASNQKSGVPSRFSGSGSGTDFTLTISSLQPEDFATYFCQQSKEVPLTFGQGTKVEIKRTVAAPSVFIFPPSDEQLKSGTASVVCLLNNFYPREAKVQWKVDNALQSGNSQESVTEQDSKDSTYSLSSTLTLSKADYEKHKVYACEVTHQGLSSPVTKSFNRGEC	0	0.88
7H11 IgG1 LALA (antibody, V domains shown) VH: QVQLVQSGAEVKKPGASVKVSCKASGYTFTRYYMHWVRQAPGQGLEWMGWIYPGDGSTKYAQKFQGRVTMTRDTSISTAYMELSRLRSDDTAVYYCAREYGNYDYWGQGTLVTVSS VL: DIVMTQSPDSLAVSLGERATINCKSSQSLLNSGNQKNYLAWYQQKPGQPPKLLIYGASTRESGVPDRFSGSGSGTDFTLTISSLQAEDVAVYYCQNDHSYPYTFGQGTKLEIKR	6	0.81
Tetra-19 (bispecific antibody, human IgG1, kappa, L234A L235A) heavy 1: QVQLVQSGAEVKKPGASVKVSCKASGYTFTRYYMHWVRQAPGQGLEWMGWIYPGEGSTKYAQKFQGRVTMTRDTSISTAYMELSRLRSDDTAVYYCAREYGNYDYWGQGTLVTVSSASTKGPSVFPLAPSSKSTSGGTAALGCLVKDYFPEPVTVSWNSGALTSGVHTFPAVLQSSGLYSLSSVVTVPSSSLGTQTYICNVNHKPSNTKVDKKVEPKSCDKTHTCPPCPAPEAAGGPSVFLFPPKPKDTLMISRTPEVTCVVVDVSHEDPEVQFKWYVDGVEVHNAKTKPREEQYNSTFRVVSVLTVLHQDWLNGKEYKCKVSNKALPAPIEKTISKTKGQPREPAVYTLPPSREEMTKNQVKLVCLVTGFYPSDIAVEWESSGQPENNYYTTPPMLDSDGSFSLVSWLNVDKSRWQQGNIFSCSVMHEALHNRFTQKSLSLSPGGGGGTEVQLVESGGGLVQPGGSLRLSCAVSGYSITSDYAWNWIRQAPGKCLEWMGYISYSGSTAYNPSLKSRITISRDTSKNTFYLQMSSLRAEDTAVYYCARGPYNYLAYWGQGTLVTVSSGGGGSGGGGSGGGGSDIQLTQSPSSLSASVGDRVTITCRASESVDNYGISFMNWFQQKPGKAPKLLIYAASNQKSGVPSRFSGSGSGTDFTLTISSLQPEDFATYFCQQSKEVPLTFGCGTKVEIL heavy 2: QVQLVQSGAEVKKPGASVKVSCKASGYTFTRYYMHWVRQAPGQGLEWMGWIYPGEGSTKYAQKFQGRVTMTRDTSISTAYMELSRLRSDDTAVYYCAREYGNYDYWGQGTLVTVSSASTKGPSVFPLAPSSKSTSGGTAALGCLVKDYFPEPVTVSWNSGALTSGVHTFPAVLQSSGLYSLSSVVTVPSSSLGTQTYICNVNHKPSNTKVDKKVEPKSCDKTHTCPPCPAPEAAGGPSVFLFPPKPKDTLMISRTPEVTCVVVDVSHEDPEVKFNWYVDGVEVHNAKTKPREEQYNSTYRVVSVLTVLHQDWLNGKEYKCKVSNKALPAPIEKTISKAKGQPREPEVATFPPSRDELTKNQVTLVCLVTGFYPSDIAVEWESNGQPENNYKTDPPLLESQGSFALSSRLRVDKSRWQQGNVFSCSVMHEALHNHYTQKSLSLSPGGGGGTQVQLVQSGAEVKKPGASVKVSCKASGYTFTRYYMHWVRQAPGQGLEWMGWIYPGEGSTKYAQKFQGRVTMTRDTSISTAYMELSRLRSDDTAVYYCAREYGNYDYWGQGTLVTVSSASTKGPSVFPLAPSSKSTSGGTAALGCLVKDYFPEPVTVSWNSGALTSGVHTFPAVLQSSGLYSLSSVVTVPSSSLGTQTYICNVNHKPSNTKVDKKVEPKSC light: not shown	0	1

Results, then the binder that gave them:

% donor responder (>2), SEB assay, IL-2 release [%]	Mean, normalized IL-2 release, SEB assay	Binder
0	1.14	Tetra-20 (bispecific antibody, human IgG1, kappa, L234A L235A) heavy 1: EVQLVESGGGLVQPGGSLRLSCAVSGYSITSDYAWNWIRQAPGKGLEWMGYISYSGSTAYNPSLKSRITISRDTSKNTFYLQMSSLRAEDTAVYYCARGPYNYLAYWGQGTLVTVSSASTKGPSVFPLAPSSKSTSGGTAALGCLVKDYFPEPVTVSWNSGALTSGVHTFPAVLQSSGLYSLSSVVTVPSSSLGTQTYICNVNHKPSNTKVDKKVEPKSCDKTHTCPPCPAPEAAGGPSVFLFPPKPKDTLMISRTPEVTCVVVDVSHEDPEVQFKWYVDGVEVHNAKTKPREEQYNSTFRVVSVLTVLHQDWLNGKEYKCKVSNKALPAPIEKTISKTKGQPREPAVYTLPPSREEMTKNQVKLVCLVTGFYPSDIAVEWESSGQPENNYYTTPPMLDSDGSFSLVSWLNVDKSRWQQGNIFSCSVMHEALHNRFTQKSLSLSPGGGGGTQVQLVQSGAEVKKPGASVKVSCKASGYTFTRYYMHWVRQAPGQCLEWMGWIYPGEGSTKYAQKFQGRVTMTRDTSISTAYMELSRLRSDDTAVYYCAREYGNYDYWGQGTLVTVSSGGGGSGGGGSGGGGSDIVMTQSPDSLAVSLGERATINCKSSQSLLNSGNQKNYLAWYQQKPGQPPKLLIYGASTRESGVPDRFSGSGSGTDFTLTISSLQAEDVAVYYCQNDHSYPYTFGCGTKLEIL heavy 2: EVQLVESGGGLVQPGGSLRLSCAVSGYSITSDYAWNWIRQAPGKGLEWMGYISYSGSTAYNPSLKSRITISRDTSKNTFYLQMNSLRAEDTAVYYCARGPYNYLAYWGQGTLVTVSSASTKGPSVFPLAPSSKSTSGGTAALGCLVKDYFPEPVTVSWNSGALTSGVHTFPAVLQSSGLYSLSSVVTVPSSSLGTQTYICNVNHKPSNTKVDKKVEPKSCDKTHTCPPCPAPEAAGGPSVFLFPPKPKDTLMISRTPEVTCVVVDVSHEDPEVKFNWYVDGVEVHNAKTKPREEQYNSTYRVVSVLTVLHQDWLNGKEYKCKVSNKALPAPIEKTISKAKGQPREPEVATFPPSRDELTKNQVTLVCLVTGFYPSDIAVEWESNGQPENNYKTDPPLLESDGSFALSSRLRVDKSRWQQGNVFSCSVMHEALHNHYTQKSLSLSPGGGGGTEVQLVESGGGLVQPGGSLRLSCAVSGYSITSDYAWNWIRQAPGKGLEWMGYISYSGSTAYNPSLKSRITISRDTSKNTFYLQMNSLRAEDTAVYYCARGPYNYLAYWGQGTLVTVSSASTKGPSVFPLAPSSKSTSGGTAALGCLVKDYFPEPVTVSWNSGALTSGVHTFPAVLQSSGLYSLSSVVTVPSSSLGTQTYICNVNHKPSNTKVDKKVEPKSC light: DIQLTQSPSSLSASVGDRVTITCRASESVDNYGISFMNWFQQKPGKAPKLLIYAASNQKSGVPSRFSGSGSGTDFTLTISSLQPEDFATYFCQQSKEVPLTFGQGTKVEIKRTVAAPSVFIFPPSDEQLKSGTASVVCLLNNFYPREAKVQWKVDNALQSGNSQESVTEQDSKDSTYSLSSTLTLSKADYEKHKVYACEVTHQGLSSPVTKSFNRGEC
40	1.65	Tetra-14 (bispecific antibody, human IgG1, kappa, L234A L235A) heavy: not shown light: DIQLTQSPSSLSASVGDRVTITCRASESVDNYGISFMNWFQQKPGKAPKLLIYAASNQKSGVPSRFSGSGSGTDFTLTISSLQPEDFATYFCQQSKEVPLTFGQGTKVEIKRTVAAPSVFIFPPSDEQLKSGTASVVCLLNNFYPREAKVQWKVDNALQSGNSQESVTEQDSKDSTYSLSSTLTLSKADYEKHKVYACEVTHQGLSSPVTKSFNRGEC
